The supplement of paper PMC9112550, “Optimization of the antimicrobial peptide Bac7 by deep mutational scanning” (BMC Biology, 2022)

Tested on: Escherichia coli TOP10
Assay: shrunken log2 fold change of peptide-encoding DNA abundance (4.5 h post-induction vs induction); higher = less antimicrobial activity (less host growth inhibition)
Conditions: time post-induction: 4.5 h; library: site-saturation at positions 5, 18, 19, 20
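Note: peptides expressed intracellularly from a pBAD plasmid library in pooled LB shake-flask culture, induced with 0.3% L-arabinose, DNA abundance read by NGS, three biological replicates, DESeq2 with apeglm shrinkage.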

Sequence	shrunken log2 fold change
RRIRCRPPRLPRPRPRPTSGPRP	0.285
RRIRPRPPRLPRPRPRPMWKPRP	-0.146
RRIRVRPPRLPRPRPRPLWFPRP	0.125
RRIRIRPPRLPRPRPRPNRFPRP	-0.174
RRIRHRPPRLPRPRPRPPIGPRP	0.0617
RRIRKRPPRLPRPRPRPNNIPRP	-0.477
RRIRQRPPRLPRPRPRPRQQPRP	-0.0145
RRIRIRPPRLPRPRPRPFVFPRP	-0.356
RRIRDRPPRLPRPRPRPWGTPRP	0.0812
RRIRNRPPRLPRPRPRPRNWPRP	-0.149
RRIRARPPRLPRPRPRPCVDPRP	0.581
RRIRHRPPRLPRPRPRPQIYPRP	-0.137
RRIRPRPPRLPRPRPRPISGPRP	-0.154
RRIRHRPPRLPRPRPRPIRGPRP	0.0308
RRIRGRPPRLPRPRPRPTEFPRP	0.327
RRIRTRPPRLPRPRPRPLCYPRP	-0.452
RRIRPRPPRLPRPRPRPACHPRP	0.111
RRIRARPPRLPRPRPRPKQRPRP	0.558
RRIRLRPPRLPRPRPRPNCHPRP	-0.156
RRIRRRPPRLPRPRPRPYVTPRP	-0.383
RRIRCRPPRLPRPRPRPQGWPRP	-0.0139
RRIRRRPPRLPRPRPRPNTHPRP	-0.126
RRIRIRPPRLPRPRPRPLTTPRP	-0.148
RRIRGRPPRLPRPRPRPPWTPRP	0.68
RRIRLRPPRLPRPRPRPYEWPRP	-0.00151

Sequence	shrunken log2 fold change
RRIRYRPPRLPRPRPRPQLIPRP	-0.3
RRIRGRPPRLPRPRPRPFPEPRP	0.56
RRIRFRPPRLPRPRPRPQYPPRP	0.041
RRIRIRPPRLPRPRPRPSIDPRP	-0.342
RRIRERPPRLPRPRPRPNLCPRP	-0.13
RRIRMRPPRLPRPRPRPICLPRP	-0.322
RRIRYRPPRLPRPRPRPAGEPRP	-0.148
RRIRIRPPRLPRPRPRPVAIPRP	0.0188
RRIRGRPPRLPRPRPRPNAFPRP	0.665
RRIRPRPPRLPRPRPRPMGNPRP	-0.0876
RRIRPRPPRLPRPRPRPFTEPRP	-0.649
RRIRIRPPRLPRPRPRPSCEPRP	-0.17
RRIRTRPPRLPRPRPRPVMLPRP	-0.157
RRIRIRPPRLPRPRPRPQQTPRP	-0.169
RRIRCRPPRLPRPRPRPENWPRP	0.145
RRIRPRPPRLPRPRPRPPRCPRP	0.408
RRIRYRPPRLPRPRPRPHLRPRP	-0.485
RRIRERPPRLPRPRPRPAIRPRP	-0.0312
RRIRHRPPRLPRPRPRPEHCPRP	0.0155
RRIRCRPPRLPRPRPRPRTLPRP	0.209
RRIRSRPPRLPRPRPRPSTYPRP	-0.405
RRIRGRPPRLPRPRPRPQALPRP	0.135
RRIRWRPPRLPRPRPRPDQTPRP	-0.00176
RRIRGRPPRLPRPRPRPTNYPRP	1.07
RRIRFRPPRLPRPRPRPHVYPRP	-0.0438

Sequence	shrunken log2 fold change
RRIRTRPPRLPRPRPRPIMDPRP	-0.233
RRIRHRPPRLPRPRPRPHISPRP	-0.226
RRIRHRPPRLPRPRPRPELRPRP	0.0303
RRIRHRPPRLPRPRPRPYYQPRP	-0.416
RRIRLRPPRLPRPRPRPEGTPRP	0.241
RRIRYRPPRLPRPRPRPPTGPRP	0.0896
RRIRPRPPRLPRPRPRPDNCPRP	-0.197
RRIRIRPPRLPRPRPRPTNPPRP	-0.454
RRIRTRPPRLPRPRPRPGDLPRP	-0.0395
RRIRIRPPRLPRPRPRPRPKPRP	0.567
RRIRVRPPRLPRPRPRPRGRPRP	0.197
RRIRKRPPRLPRPRPRPCKIPRP	-0.248
RRIRDRPPRLPRPRPRPVTDPRP	0.0222
RRIRVRPPRLPRPRPRPEYRPRP	-0.115
RRIRMRPPRLPRPRPRPGIIPRP	-0.0597
RRIRKRPPRLPRPRPRPCHPPRP	-0.336
RRIRTRPPRLPRPRPRPQRRPRP	-0.0307
RRIRWRPPRLPRPRPRPIPGPRP	0.0313
RRIRFRPPRLPRPRPRPIRTPRP	-0.0861
RRIRCRPPRLPRPRPRPGRNPRP	-0.0027
RRIRDRPPRLPRPRPRPNNNPRP	-0.667
RRIRSRPPRLPRPRPRPDVAPRP	0.407
RRIRGRPPRLPRPRPRPKGYPRP	0.214
RRIRQRPPRLPRPRPRPNVLPRP	-0.0544
RRIRPRPPRLPRPRPRPYNRPRP	-0.0087
